From patent US20180237490A1 (HANMI PHARM, published 2018)
Positions of bridges follow the written chain, without caps; N, C: chain ends. Non-standard residues stand in square brackets, D forms with d. No end group written: not given here. *: point of attachment. Acetyl(2-(4-imidazolyl)) = O=C(Cc1c[nH]cn1)*; Aib = CC(C)(N)C(=O)O

Columns and labels:
Assay in all cases: cell-based or functional assay
[1] = target: human glucagon receptor (human) (UniProt P47871)
[2] = target: human GLP-1 receptor (human) (UniProt P43220)
Chain of human GLP-1 receptor (human) (P43220 24-463): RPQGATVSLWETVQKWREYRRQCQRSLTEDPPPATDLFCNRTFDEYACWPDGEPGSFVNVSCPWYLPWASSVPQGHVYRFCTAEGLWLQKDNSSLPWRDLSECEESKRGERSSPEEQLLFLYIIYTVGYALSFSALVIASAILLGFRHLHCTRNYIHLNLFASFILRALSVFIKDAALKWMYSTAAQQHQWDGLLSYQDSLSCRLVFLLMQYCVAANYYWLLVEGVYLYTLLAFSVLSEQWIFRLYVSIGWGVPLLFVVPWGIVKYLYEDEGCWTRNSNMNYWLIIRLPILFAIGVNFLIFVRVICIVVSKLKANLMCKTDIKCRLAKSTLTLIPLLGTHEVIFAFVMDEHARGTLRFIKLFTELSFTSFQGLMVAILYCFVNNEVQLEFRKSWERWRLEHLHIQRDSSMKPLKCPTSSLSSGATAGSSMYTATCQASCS

[3] = target: human glucagon receptor (human, UniProt P47871 26-477)
Chain of human glucagon receptor (P47871 26-477): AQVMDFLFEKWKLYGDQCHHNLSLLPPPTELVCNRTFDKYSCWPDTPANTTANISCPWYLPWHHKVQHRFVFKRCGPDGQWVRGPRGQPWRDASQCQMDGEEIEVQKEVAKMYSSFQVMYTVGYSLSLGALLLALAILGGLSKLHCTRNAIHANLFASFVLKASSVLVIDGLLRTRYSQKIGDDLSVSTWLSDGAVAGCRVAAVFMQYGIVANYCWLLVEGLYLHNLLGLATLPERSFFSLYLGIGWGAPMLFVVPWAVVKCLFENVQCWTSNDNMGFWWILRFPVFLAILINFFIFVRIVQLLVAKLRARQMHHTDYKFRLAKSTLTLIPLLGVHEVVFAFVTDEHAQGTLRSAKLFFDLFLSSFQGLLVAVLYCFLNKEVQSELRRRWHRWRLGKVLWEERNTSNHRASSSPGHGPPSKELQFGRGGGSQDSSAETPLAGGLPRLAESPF

Chain of human glucagon receptor (human) (P47871 26-477): as above

B1: oxyntomodulin analog (SEQ ID NO: 3) (peptide)
peptide: [Acetyl(2-(4-imidazolyl))]SQGTFTSDYSKYLDERRAQDFVAWLKNTGPSSGAPPPS
EC50 (nM), cAMP, CHO/GCGR [1]: 638 nM
EC50 (nM), cAMP, CHO/GLP-1R [2]: > 1000 nM

B2: oxyntomodulin analog (SEQ ID NO: 34) (peptide)
peptide: Y[Aib]QGTFTSDYSKYLDEKRAKEFVQWLMNTC
modifications: bridge 16-20
EC50 (nM), cAMP, CHO/GCGR [3]: 1.04 nM

B3: oxyntomodulin analog (SEQ ID NO: 8) (peptide)
peptide: [Acetyl(2-(4-imidazolyl))]SQGTFTSDLSRQLEEEAVRLFIEWLMNK
EC50 (nM), cAMP, CHO/GCGR [1]: > 1000 nM
EC50 (nM), cAMP, CHO/GLP-1R [2]: 420 nM

B4: oxyntomodulin analog (SEQ ID NO: 25) (peptide)
peptide: H[Aib]QGTFTSDYSKYLDEKRAKEFVQWLMNTC
modifications: bridge 16-20
EC50 (nM), cAMP, CHO/GCGR [3]: 1.3 nM

B5: oxyntomodulin analog (SEQ ID NO: 18) (peptide)
peptide: [Acetyl(2-(4-imidazolyl))]SQGTFTSDYSRYLDEEAVRLFIEWIRNGGPSSGAPPPSK
EC50 (nM), cAMP, CHO/GCGR [1]: > 1000 nM
EC50 (nM), cAMP, CHO/GLP-1R [2]: 96.3 nM

B6: oxyntomodulin analog (SEQ ID NO: 24) (peptide)
peptide: H[Aib]QGTFTSDYSKYLDEKRAKEFVQWLMNTC
EC50 (nM), cAMP, CHO/GCGR [3]: 6.95 nM
